Results published in patent US20220002363A1, “COMPOSITIONS AND METHODS FOR TREATING PULMONARY DISEASE” (United States Government As Represented By The Department …, priority 2020, published 2022).
Read-outs that look alike come from different tables or passages of the source.

Legend:
Jurkat cells = assay: Caspase 3/7 activity in Jurkat cells (bioactivity of sFasL proteins); type: cell-based, human
Method: Jurkat cells were incubated for 5 hours with wild type (WT) sFasL or a sFasL mutant (mut sFasL) in which 8 charged amino acids were changed to alanine. Caspase 3/7 activity was measured after incubation with the caspase 3/7 substrate at room temperature for 30 minutes. Data is shown as arbitrary luminescence units. […] Each dot represents individual data. Data analyzed by 2-way ANOVA with Sidak post-hoc analysis. ** p<0.01, *** p<0.001 compared to the respective concentration of mut-sFasL.
Methods. Cells and cell culture. To test Fas responses in vitro, the highly-Fas sensitive cell line, Jurak, was used. Jurak cells are human T lymphocyte cells first isolated from the peripheral blood of a child with acute cell leukemia (Gillis S and Watson J. J Exp Med. 1980; 152(6):1709-19). Jurak cells are exquisitely sensitive to Fas ligation and are commonly used as a model cell in studies involving the Fas/FasL system; here they are used as such, rather than as a model of T-cell responses. Jurak cells (human leukemic T lymphocytes) were purchased from ATCC (Clone TIB-152) and grown at 37° C. and 5% CO2 in RPMI-1640 medium supplemented with 10% heat-inactivated fetal bovine serum. Cells were authenticated using short tandem repeat analysis. Mycoplasma status was weakly positive by PCR (Venor GeM Mycoplasma Detection Kit, Sigma-Aldrich, Cat #MP0025). The Jurak data was confirmed in primary human lung epithelial cells and the murine alveolar epithelial cell line LA4, which are described herein.
(§1) Measurements of apoptotic cascade activation. Apoptotic cascade activation was assessed by determining caspase 3/7 activity and Annexin V externalization. Caspase-3/7 activity was measured using a commercial substrate (Caspase-Glo 3/7 Assay, Promega, Madison, Wis., Cat #G8090) following manufacturer's instructions. Annexin V was measured with a luminescent commercial assay that allows for measurement of annexin V externalization in adherent cells (RealTime-Glo Annexin V assay, Promega, Madison, Wis., Cat #JA1011). Luminescence was measured with a Synergy H4 Microplate Reader (BioTek, Winooski, Vt.).
Results. Mutations of the charged amino acids in the stalk region of sFasL influence its biological activity in vitro. To test whether the structure of the stalk region of sFasL influences its biological activity, a mutant sFasL molecule (mut-sFasL) was cloned in which 8 charged amino acids in the 26 amino acid stalk region were changed to the non-charged amino acid alanine (FIG. 7). DNA sequencing data for the FasL constructs was also carried out: DNA sequence of wild type sFasL construct and eight different clones. The mutant sFasL clone used in the study is clone 1. […]

WT-sFasL = target: T1, WT-sFasL (Homo sapiens, UniProt P48023); assay: Attenuation of WT-sFasL-induced caspase 3/7 activity in murine lung epithelial cells (LA4); type: cell-based, mouse
T1 construct: made in house
T1 sequence (P48023 103-281): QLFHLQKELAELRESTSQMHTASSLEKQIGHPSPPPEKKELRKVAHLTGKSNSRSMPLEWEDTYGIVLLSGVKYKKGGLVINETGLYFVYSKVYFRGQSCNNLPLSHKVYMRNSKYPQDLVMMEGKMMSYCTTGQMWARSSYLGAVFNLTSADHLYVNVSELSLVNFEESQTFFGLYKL
Method: FIGS. 2A-D show the mut-sFasL has inhibitory properties. Highly Fas-sensitive Jurkat cells (FIG. 2A), primary human lung small airway epithelial cells (SAEC, FIG. 2B) or murine lung epithelial cells (LA4, FIG. 2D) were incubated with serial dilutions of mutated FasL, (mut sFasL). […] As a confirmatory test, the experiment was repeated using SAEC and an annexin-V translocation assay (FIG. 2C). WT=wild type (no mutant). […] Each dot represents individual data; lines represent means±SD. *=P<0.05; **=P<0.01, ***P<0.001 when compared to WT. One way ANOVA with SIdak's post hoc analysis.
Mouse lung epithelial LA-4 cells were obtained from ATCC (catalogue number CCL-196, lot number 3404534). This cell line is derived from a A/He mouse lung adenoma (Stoner G, et al. Cancer Res. 1975; 35(8):2177-85). […]
as §1, with “Vt.). […]” for “Vt.).”

B1: mut-sFasL: mutant sFasL molecule in which 8 charged amino acids in the 26 amino acid stalk region were changed to alanine (protein)
chain: QLFALQAALAALAASTSQMATASSLAKQIGHPSPPPEKKELRKVAHLTGKSNSRSMPLEWEDTYGIVLLSGVKYKKGGLVINETGLYFVYSKVYFRGQSCNNLPLSHKVYMRNSKYPQDLVMMEGKMMSYCTTGQMWARSSYLGAVFNLTSADHLYVNVSELSLVNFEESQTFFGLYKL
- bioactivity (caspase 3/7) at the highest concentration tested (Jurkat cells; 810 ng/mL): retained some bioactivity
- caspase 3/7 activity (Jurkat cells; 5 hours incubation, compared to WT-sFasL): significantly reduced caspase 3/7 activity compared to WT-sFasL
- activity relative to the wild-type sFasL (Jurkat cells; caspase 3/7): approximately two orders of magnitude less than the wild-type sFasL
- intrinsic caspase-3/7 activation (Jurkat cells; highest dose of 2430 ng/mL (corresponds to 1:81 WT:mut molar ratio)): leads to intrinsic caspase-3/7 activation
- inhibition of WT-sFasL-induced caspase 3-7 activity (WT-sFasL): inhibited the ability of WT-sFasL to induce caspase 3-7 activity
- inhibition of WT-sFasL-induced caspase 3-7 activity (WT-sFasL; listed as 8-mutant protein): an inhibitory effect of the 8-mutant protein was detected
